T1: recombinant human IL-23R/Fc chimera (R&D Systems) (human, UniProt Q5VWK5 24-353)
T1 construct: bought; also called human IL-23R/Fc fusion protein; rhIL23RFc
T1 sequence (looked up): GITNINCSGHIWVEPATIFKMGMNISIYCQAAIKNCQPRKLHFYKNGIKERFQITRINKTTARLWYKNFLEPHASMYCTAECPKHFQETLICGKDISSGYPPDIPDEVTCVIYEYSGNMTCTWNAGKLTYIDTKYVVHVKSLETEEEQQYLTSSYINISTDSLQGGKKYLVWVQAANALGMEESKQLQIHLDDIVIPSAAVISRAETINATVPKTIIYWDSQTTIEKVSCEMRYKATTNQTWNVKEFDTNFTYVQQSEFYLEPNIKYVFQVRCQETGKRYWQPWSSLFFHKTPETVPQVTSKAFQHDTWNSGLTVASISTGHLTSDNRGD


Biological target: T1, recombinant human IL-23R/Fc chimera …
Assay: competition ELISA against IL-23
Procedure: Assays were performed generally as follows. Individual wells in Immulon HB2 plates were incubated overnight at 4° C. with 100 μL PBS containing 100 ng of an anti-human IgG Fc (R&D MAB 110 clone 97924). Plates were washed five times with PBS/0.05% Tween 20, and wells were incubated for 1.5 h at RT with 100 μL each of PBS containing 50 ng of recombinant human IL-23R/Fc. […] Competitor was included at a final concentration of 1 μg/mL. After incubation, plates were washed as described and wells were incubated for 40 min at RT with 100 μL each of PBS containing a 1:5000 dilution of streptavidin-HRP conjugate (Pierce catalog no. 21130). After washing, wells were incubated with 100 μL each of TMB (BioFX Lab catalog no. TMBH-1000-0) for up to 30 min at RT. Reactions were stopped with an equal volume of 0.2 M sulfuric acid.

Row | Binder | Ratio IC50 to 056-53.H4E IC50 [ratio]
1 | 105-08-2H3 ATRIMER (designed binder, Homotrimer of the given chain (ATRIMER complex).) EPPTQKPKKIVNAKKDVVNTKMFEELKSRLDTLAQEVALLKEQQALQTVCLKGTKVHMKCFLAFTQTKTFHEASEDCISRGGTLSTPQTGSENDALYEYLRQSVGNEAEIWLGLNGSSLTNTWVDMTGARIAYKNWETEITAQPDGGWGYFGENCAVLSGAANGKWFDKRCRDQLPYICQFGIV | 2.9
2 | 105-08-2H4 ATRIMER (designed binder) EPPTQKPKKIVNAKKDVVNTKMFEELKSRLDTLAQEVALLKEQQALQTVCLKGTKVHMKCFLAFTQTKTFHEASEDCISRGGTLSTPQTGSENDALYEYLRQSVGNEAEIWLGLNGSVRTDTWVDMTGARIAYKNWETEITAQPDGGFGYFGENCAVLSGAANGKWFDKRCRDQLPYICQFGIV | 5
3 | 105-08-2H6 ATRIMER (designed binder) EPPTQKPKKIVNAKKDVVNTKMFEELKSRLDTLAQEVALLKEQQALQTVCLKGTKVHMKCFLAFTQTKTFHEASEDCISRGGTLSTPQTGSENDALYEYLRQSVGNEAEIWLGLNGSPVTGTWVDMTGARIAYKNWETEITAQPDGGFGYFGENCAVLSGAANGKWFDKRCRDQLPYICQFGIV | 2
4 | 105-08-2H10 ATRIMER (designed binder, not shown: C-terminal tag: His/Myc (pANA4) or HA-StrepII (pANA10)) EPPTQKPKKIVNAKKDVVNTKMFEELKSRLDTLAQEVALLKEQQALQTVCLKGTKVHMKCFLAFTQTKTFHEASEDCISRGGTLSTPQTGSENDALYEYLRQSVGNEAEIWLGLNGSNHTDTWVDMTGARIAYKNWETEITAQPDGGFGYFGENCAVLSGAANGKWFDKRCRDQLPYICQFGIV | 6.5
5 | 105-08-2H11 ATRIMER (designed binder) EPPTQKPKKIVNAKKDVVNTKMFEELKSRLDTLAQEVALLKEQQALQTVCLKGTKVHMKCFLAFTQTKTFHEASEDCISRGGTLSTPQTGSENDALYEYLRQSVGNEAEIWLGLNGSPRTDTWVDMTGARIAYKNWETEITAQPDGGWGYFGENCAVLSGAANGKWFDKRCRDQLPYICQFGIV | 4.3
6 | 105-08-2H12 ATRIMER (designed binder, Homotrimer of the given chain (ATRIMER complex).) EPPTQKPKKIVNAKKDVVNTKMFEELKSRLDTLAQEVALLKEQQALQTVCLKGTKVHMKCFLAFTQTKTFHEASEDCISRGGTLSTPQTGSENDALYEYLRQSVGNEAEIWLGLNGSPRTETWVDMTGARIAYKNWETEITAQPDGGFGYFGENCAVLSGAANGKWFDKRCRDQLPYICQFGIV | 3.3
7 | 105-20-1A6 ATRIMER (designed binder, not shown: C-terminal tag: His/Myc (pANA4) or HA-StrepII (pANA10)) EPPTQKPKKIVNAKKDVVNTKMFEELKSRLDTLAQEVALLKEQQALQTVCLKGTKVHMKCFLAFTQTKTFHEASEDCISRGGTLSTPQTGSENDALYEYLRQSVGNEAEIWLGLNGSAKTGTWVDMTGARIAYKNWETEITAQPDGGWGYFGENCAVLSGAANGKWFDKRCRDQLPYICQFGIV | 6.6
8 | 105-20-1B4 ATRIMER (designed binder, Homotrimer of the given chain (ATRIMER complex).) EPPTQKPKKIVNAKKDVVNTKMFEELKSRLDTLAQEVALLKEQQALQTVCLKGTKVHMKCFLAFTQTKTFHEASEDCISRGGTLSTPQTGSENDALYEYLRQSVGNEAEIWLGLNGSSRTNTWVDMTGARIAYKNWETEITAQPDGGWGYFGENCAVLSGAANGKWFDKRCRDQLPYICQFGIV | 3
9 | 105-20-1H1 ATRIMER (designed binder) EPPTQKPKKIVNAKKDVVNTKMFEELKSRLDTLAQEVALLKEQQALQTVCLKGTKVHMKCFLAFTQTKTFHEASEDCISRGGTLSTPQTGSENDALYEYLRQSVGNEAEIWLGLNGSPLTNTWVDMTGARIAYKNWETEITAQPDGGWGYFGENCAVLSGAANGKWFDKRCRDQLPYICQFGIV | 1.8
10 | 105-20-1H7 ATRIMER (designed binder) EPPTQKPKKIVNAKKDVVNTKMFEELKSRLDTLAQEVALLKEQQALQTVCLKGTKVHMKCFLAFTQTKTFHEASEDCISRGGTLSTPQTGSENDALYEYLRQSVGNEAEIWLGLNGSAGTNTWVDMTGARIAYKNWETEITAQPDGGFGYFGENCAVLSGAANGKWFDKRCRDQLPYICQFGIV | 2.1
11 | 105-20-2C4a ATRIMER (designed binder, not shown: C-terminal tag: His/Myc (pANA4) or HA-StrepII (pANA10)) EPPTQKPKKIVNAKKDVVNTKMFEELKSRLDTLAQEVALLKEQQALQTVCLKGTKVHMKCFLAFTQTKTFHEASEDCISRGGTLSTPQTGSENDALYEYLRQSVGNEAEIWLGLNGSAKTDTWVDMTGARIAYKNWETEITAQPDGGWGYFGENCAVLSGAANGKWFDKRCRDQLPYICQFGIV | 2.9
12 | 105-20-2C4b ATRIMER (designed binder, Forms a homotrimer (ATRIMER) through the tetranectin coiled coil; one protomer is given., not shown: C-terminal tag) EPPTQKPKKIVNAKKDVVNTKMFEELKSRLDTLAQEVALLKEQQALQTVCLKGTKVHMKCFLAFTQTKTFHEASEDCISRGGTLSTPQTGSENDALYEYLRQSVGNEAEIWLGLNGSVKTDTWVDMTGARIAYKNWETEITAQPDGGWGYFGENCAVLSGAANGKWFDKRCRDQLPYICQFGIV | 4.2
13 | 105-20-2C7 ATRIMER (designed binder) EPPTQKPKKIVNAKKDVVNTKMFEELKSRLDTLAQEVALLKEQQALQTVCLKGTKVHMKCFLAFTQTKTFHEASEDCISRGGTLSTPQTGSENDALYEYLRQSVGNEAEIWLGLNGSVTTDTWVDMTGARIAYKNWETEITAQPDGGFGYFGENCAVLSGAANGKWFDKRCRDQLPYICQFGIV | 3.5
14 | 105-20-2C11 ATRIMER (designed binder) EPPTQKPKKIVNAKKDVVNTKMFEELKSRLDTLAQEVALLKEQQALQTVCLKGTKVHMKCFLAFTQTKTFHEASEDCISRGGTLSTPQTGSENDALYEYLRQSVGNEAEIWLGLNGSVRTDTWVDMTGARIAYKNWETEITAQPDGGWGYFGENCAVLSGAANGKWFDKRCRDQLPYICQFGIV | 4.8
15 | 105-20-2F10 ATRIMER (designed binder, Forms a homotrimer (ATRIMER) through the tetranectin coiled coil; one protomer is given., not shown: C-terminal tag) EPPTQKPKKIVNAKKDVVNTKMFEELKSRLDTLAQEVALLKEQQALQTVCLKGTKVHMKCFLAFTQTKTFHEASEDCISRGGTLSTPQTGSENDALYEYLRQSVGNEAEIWLGLNGSARTDTWVDMTGARIAYKNWETEITAQPDGGFGYFGENCAVLSGAANGKWFDKRCRDQLPYICQFGIV | 4.2
16 | 105-20-2G5 ATRIMER (designed binder, not shown: C-terminal tag: His/Myc (pANA4) or HA-StrepII (pANA10)) EPPTQKPKKIVNAKKDVVNTKMFEELKSRLDTLAQEVALLKEQQALQTVCLKGTKVHMKCFLAFTQTKTFHEASEDCISRGGTLSTPQTGSENDALYEYLRQSVGNEAEIWLGLNGSRRTDTWVDMTGARIAYKNWETEITAQPDGGWGYFGENCAVLSGAANGKWFDKRCRDQLPYICQFGIV | 5.3
17 | 105-20-2G12 ATRIMER (designed binder, not shown: C-terminal tag: Myc/His6 (pANA4) or HA-StrepII (pANA10); A Ser left at the ompA junction may also sit at the N-terminus) EPPTQKPKKIVNAKKDVVNTKMFEELKSRLDTLAQEVALLKEQQALQTVCLKGTKVHMKCFLAFTQTKTFHEASEDCISRGGTLSTPQTGSENDALYEYLRQSVGNEAEIWLGLNGSPRTNTWVDMTGARIAYKNWETEITAQPDGGFGYFGENCAVLSGAANGKWFDKRCRDQLPYICQFGIV | 1
18 | 105-59-3A5 ATRIMER (designed binder, not shown: C-terminal tag: Myc/His6 (pANA4) or HA-StrepII (pANA10); A Ser left at the ompA junction may also sit at the N-terminus) EPPTQKPKKIVNAKKDVVNTKMFEELKSRLDTLAQEVALLKEQQALQTVCLKGTKVHMKCFLAFTQTKTFHEASEDCISRGGTLSTPQTGSENDALYEYLRQSVGNEAEIWLGLNGSLLTNTWVDMTGARIAYKNWETEITAQPDGGFGVFGENCAVLSGAANGKWFDKRCRDQLPYICQFGIV | 1.2
19 | 105-59-3B5 ATRIMER (designed binder, not shown: C-terminal purification tag: Myc/His6 (pANA4) or HA-StrepII (pANA10)) EPPTQKPKKIVNAKKDVVNTKMFEELKSRLDTLAQEVALLKEQQALQTVCLKGTKVHMKCFLAFTQTKTFHEASEDCISRGGTLSTPQTGSENDALYEYLRQSVGNEAEIWLGLNGSPITDTWVDMTGARIAYKNWETEITAQPDGGFGVFGENCAVLSGAANGKWFDKRCRDQLPYICQFGIV | 0.8
20 | 105-61-4G3 ATRIMER (designed binder, not shown: C-terminal purification tag: Myc/His6 (pANA4) or HA-StrepII (pANA10)) EPPTQKPKKIVNAKKDVVNTKMFEELKSRLDTLAQEVALLKEQQALQTVCLKGTKVHMKCFLAFTQTKTFHEASEDCISRGGTLSTPQTGSENDALYEYLRQSVGNEAEIWLGLNGSLRTDTWVDMTGARIAYKNWETEITAQPDGGFGVFGENCAVLSGAANGKWFDKRCRDQLPYICQFGIV | 0.8
21 | 105-61-4G5 ATRIMER (designed binder, not shown: C-terminal tag: Myc/His6 (pANA4) or HA-StrepII (pANA10); A Ser left at the ompA junction may also sit at the N-terminus) EPPTQKPKKIVNAKKDVVNTKMFEELKSRLDTLAQEVALLKEQQALQTVCLKGTKVHMKCFLAFTQTKTFHEASEDCISRGGTLSTPQTGSENDALYEYLRQSVGNEAEIWLGLNGSPLTNTWVDMTGARIAYKNWETEITAQPDGGFGVFGENCAVLSGAANGKWFDKRCRDQLPYICQFGIV | 1
22 | 105-78-2D1 ATRIMER (designed binder, not shown: C-terminal tag: Myc/His6 (pANA4) or HA-StrepII (pANA10); A Ser left at the ompA junction may also sit at the N-terminus) EPPTQKPKKIVNAKKDVVNTKMFEELKSRLDTLAQEVALLKEQQALQTVCLKGTKVHMKCFLAFTQTKTFHEASEDCISRGGTLSTPQTGSENDALYEYLRQSVGNEAEIWLGLNGSLRTHTWVDMTGARIAYKNWETEITAQPDGGFGVFGENCAVLSGAANGKWFDKRCRDQLPYICQFGIV | 1.3

Reference: patent publication US20110086770A1 (ANAPHORE, published 2011)
